Assays:
Type in all cases: in vivo, Female Swiss Albino mice
[1] = test system: Cyclophosphamide induced neutropenia; test: Cyclophosphamide induced neutropenia, hematological parameters (Example 10)
Experimental: (§1) • 1. To induce neutropenia by administration of cyclophosphamide. • 2.
(§2) Materials: Female Swiss Albino mice weighing between 25-27 g was procured from Global Bioresearch Solutions Pvt Ltd., Pune.
(§3) On day 0, blood was withdrawn from all animals for basal hematological parameters. All the groups of animals except placebo group were injected with 150 mg/kg of cyclophosphamide through intraperitoneal route (i.p.), while group 1 was injected with water for injection, i.p. On Day 3, blood was withdrawn from all animals for Total and differential count (neutrophils, lymphocytes, and monocytes). The animals of group 2 to 7 were dosed with one additional dose of 100 mg/kg cyclophosphamide on Day 4. […] The cyclophosphamide control group was injected with water for injection from day 5 to day 9. On day 10, blood was withdrawn from all animals for total and differential count (neutrophils, lymphocytes, and monocytes), platelets, liver parameters AST (aspartate aminotransferase), ALT (alanine aminotransferase), and renal parameters—serum creatinine, blood urea nitrogen and uric acid.
(§4) • Pure Picroside 1—1 tablet was dissolved in 0.1 ml of sterile water for injection and 0.1 ml was injected as subcutaneous injection. • The degraded Picroside 1 without salt (cinnamic acid of the present disclosure)—1 tablet was dissolved in 0.1 ml of sterile water for injection and 0.1 ml was injected as subcutaneous injection. • The Cinnamic acid low dose (0.6 mg/tablet) treated tablet was dissolved in 0.1 ml of sterile water for injection and 0.1 ml was injected as subcutaneous injection. • The Cinnamic acid high dose treated (6 mg/tablet) tablet was dissolved in 0.1 ml of sterile water for injection and 0.1 ml was injected as subcutaneous injection.

[2] = test system: Cyclophosphamide induced hepatotoxicity; test: Cyclophosphamide induced hepatotoxicity, AST/ALT (Example 9); conditions: for ALT (alanine aminotransferase) / AST (aspartate aminotransferase): day 10, after 5 days treatment from day 5, GCSF 2 μg
Experimental: (§5) Female Swiss Albino mice were randomized into different groups based on body weight as follows: • Group 1—cyclophosphamide control (CP control), • Group 2—pure Picroside 1 treated, • Group 3—the degraded Picroside 1 with salt and • Group 4—GCSF (granulocyte colony stimulating factor) treated groups. • On day 0, blood was withdrawn from all animals for basal hematological parameters. The animals of all the groups were injected with 150 mg/kg of cyclophosphamide through intraperitoneal route (i.p.). On Day 3, blood was withdrawn from all animals for total and differential count (neutrophils, lymphocytes, and monocytes). The animals were dosed with one additional dose of 100 mg/kg cyclophosphamide on Day 4. From day 5, the animals were administered with respective treatments through oral route in water as vehicle while group 1 was administered with placebo tablets for 5 consecutive days. On day 10, blood was withdrawn from all animals for Total and differential count (neutrophils, lymphocytes, and monocytes), WBCs, Platelets and AST (aspartate aminotransferase) and ALT (alanine aminotransferase).

[3] = test system: Cyclophosphamide induced neutropenia; test: Cyclophosphamide induced neutropenia, hematological changes (Example 9)
Experimental: • 1. To induce neutropenia in mice by administration of cyclophosphamide. • 2. To determine the effect of treatments of pure Picroside 1 and the degraded Picroside 1 with salt on total WBC count, neutrophils, monocyte, lymphocytes and platelet count. • 3. To compare the effect of pure Picroside 1 and the degraded Picroside 1 with salt standard 2 μg G-CSF.
Cyclophosphamide was procured from Sigma Aldrich and G-CSF was procured from marketed formulation of Lupin limited, Lupifil (300). Female Swiss Albino mice weighing between 25-27 g were procured from National Institute of Biosciences, Pune.
as §5

[4] = test system: Cyclophosphamide induced hepatotoxicity and renal changes; test: Hepatic and renal parameters in cyclophosphamide induced neutropenia (Example 10); conditions: for BUN (blood urea nitrogen) / SGOT Serum glutamic oxaloacetic transaminase / SGPT (Serum glutamic pyruvic transaminase) / Serum Creatinine / Uric acid: day 10, G-CSF 2 μg s.c., others 1 tablet per animal per day for 5 days
Experimental: as §1, §2, §3, §4

[5] = Day 0, basal, G-CSF 2 μg, Picroside tablets groups
[6] = Day 3, after cyclophosphamide, before treatment, G-CSF 2 μg, Picroside tablets groups
[7] = Day 10, treated day 5 for 5 days, G-CSF 2 μg s.c., others 1 tablet per animal per day
[8] = compared to cyclophosphamide control group, Example 9
[9] = Day 0, basal, before cyclophosphamide
[10] = Day 3, after cyclophosphamide 150 mg/kg i.p., before treatment
[11] = Day 10, after 5 days treatment from day 5, GCSF 2 μg
[12] = vs CP control, day 10, cinnamic acid at both 0.6 mg/tablet low dose and 6 mg/tablet high dose
[13] = vs CP control, cinnamic acid at both 0.6 mg/tablet low dose and 6 mg/tablet high dose

In the case of `O=C(/C=C/c1ccccc1)OC[C@H]1O[C@@H](O[C@@H]2OC=C[C@H]3[C@H](O)[C@@H]4O[C@]4(CO)[C@@H]23)[C@H](O)[C@@H](O)[C@@H]1O` [Pure Picroside 1, Picroside 1], the “% Lymphocytes” value [1, 5] is reported as 44.33%, the “% Monocytes” value [1, 5] is reported as 6.00% and the “% Neutrophils” value [1, 5] is reported as 41.00%. For the same molecule, the “No of Platelets” value [1, 5] was 735700 per cu · mm of blood, the “Total WBC Count” value [1, 5] was 7301 per cu · mm of blood and the “% Lymphocytes” value [1, 6] was 84%. For the same molecule, the “% Monocytes” value [1, 6] was 1.50%, the “% Neutrophils” value [1, 6] was 6.50% and the “No of Platelets” value [1, 6] was 631700 per cu · mm of blood. The “Total WBC Count” value [1, 6] was 2365 per cu · mm of blood, the “% Lymphocytes” value [1, 7] was 58.67% and the “% Monocytes” value [1, 7] was 5.00%. For the same molecule, the “% Neutrophils” value [1, 7] was 28.33%, the “No of Platelets” value [1, 7] was 626800 per cu · mm of blood and the “Total WBC Count” value [1, 7] was 3674 per cu · mm of blood. The “Anti-neutropenic activity (words)” value ([1]; inference from table 8A) was “shows better anti-neutropenic activity”, the “Effect on ALT” value [2, 8] was “significant reversal (p<0.001)” and the “Effect on AST” value [2, 8] was “significant (p<0.001) decrease in AST”. The “ALT (alanine aminotransferase)” value [2] was 37.32 ± 0.66 IU/L, the “AST (aspartate aminotransferase)” value [2] was 43.66 ± 2.68 IU/L and the “% Lymphocytes” value [3, 9] was 40.32 ± 1.56%. The “% Monocytes” value [3, 9] was 7.32 ± 0.32^ %, the “% Neutrophils” value [3, 9] was 43 ± 0.68% and the “Platelet Count” value [3, 9] was 741600 ± 3476 per cu · mm of blood. For the same molecule, the “WBC Count” value [3, 9] was 7410 ± 414.90 per cu · mm of blood, the “% Lymphocytes” value [3, 10] was 80.00 ± 1.92% and the “% Monocytes” value [3, 10] was 1.50 ± 0.34^ %. The “% Neutrophils” value [3, 10] was 7 ± 0.92%, the “Platelet Count” value [3, 10] was 647900 ± 26900 per cu · mm of blood and the “WBC Count” value [3, 10] was 1562 ± 145.90 per cu · mm of blood. For the same molecule, the “% Lymphocytes” value [3, 11] was 72.00 ± 1.46 %, the “% Monocytes” value [3, 11] was 4.50 ± 0.34 % and the “% Neutrophils” value [3, 11] was 12.66 ± 0.66 %. For the same molecule, the “Platelet Count” value [3, 11] was 653300 ± 26550 per cu · mm of blood, the “WBC Count” value [3, 11] was 4380 ± 333.30 per cu · mm of blood and the “Effect on % lymphocytes” value [3, 8] was “significant (p<0.01) reduction in % lymphocytes”. The “Effect on % monocytes” value [3, 8] was “significantly reversed”, the “Effect on platelet count” value [3, 8] was “improved the platelet count significantly (p<0.001)” and the “Effect on total WBC count” value [3, 8] was “significantly (p<0.001) reversed the cyclophosphamide induced decrease in WBC count”. The “Effect on % neutrophil” value ([3]; compared to cyclophosphamide/placebo control group, Example 9) was “significantly (p<0.01) alleviated the cyclophosphamide-induced neutropenia”, the “BUN (blood urea nitrogen)” value [4] was 9.483 mmol/L and the “SGOT Serum glutamic oxaloacetic transaminase” value [4] was 25.67 IU/L. For the same molecule, the “SGPT (Serum glutamic pyruvic transaminase)” value [4] was 28.5 IU/L, the Serum Creatinine [4] was 46.8 µM and the Uric acid [4] was 30.00 mg/L. The “Hepatic and renal parameters in neutropenic animal model” value ([4]; inference from table 8B, as compared to GCSF) was “improved hepatic and renal parameters”.

B1: GCSF: glycoprotein that stimulates the bone marrow to produce granulocytes and stem cells; marketed formulation of Lupin limited (protein, UniProt P09919 31-207, looked up)
Granulocyte …: TPLGPASSLPQSFLLKCLEQVRKIQGDGAALQEKLVSECATYKLCHPEELVLLGHSLGIPWAPLSSCPSQALQLAGCLSQLHSGLFLYQGLLQALEGISPELGPTLDTLQLDVADFATTIWQQMEELGMAPALQPTQGAMPAFASAFQRRAGGVLVASHLQSFLEVSYRVLRHLAQP
modifications: filgrastim (Lupifil)
notes: glycoprotein that stimulates the bone marrow to produce granulocytes and stem cells; marketed formulation of Lupin limited
For B1, the “% Lymphocytes” value [1, 5] was 45.5%, the “% Monocytes” value [1, 5] was 6.00% and the “% Neutrophils” value [1, 5] was 41.33%. The “No of Platelets” value [1, 5] was 752200 per cu · mm of blood, the “Total WBC Count” value [1, 5] was 7255 per cu · mm of blood and the “% Lymphocytes” value [1, 6] was 83.5%. The “% Monocytes” value [1, 6] was 1.833%, the “% Neutrophils” value [1, 6] was 6.667% and the “No of Platelets” value [1, 6] was 645800 per cu · mm of blood. For the same molecule, the “Total WBC Count” value [1, 6] was 2617 per cu · mm of blood, the “% Lymphocytes” value [1, 7] was 50.17% and the “% Monocytes” value [1, 7] was 5.167%. For the same molecule, the “% Neutrophils” value [1, 7] was 36.67%, the “No of Platelets” value [1, 7] was 674900 per cu · mm of blood and the “Total WBC Count” value [1, 7] was 6030 per cu · mm of blood. For the same molecule, the “Effect on % lymphocytes” value [1, 12] was “significant (p<0.001) decrease in % lymphocytes”, the “Effect on % monocytes” value [1, 12] was “significantly (p<0.001) reversed” and the “Effect on platelet count” value [1, 12] was “significant (p<0.05) increase in platelet count”. For the same molecule, the “Effect on total WBC count” value [1, 12] was “significantly (p<0.001) reversed the cyclophosphamide induced decrease in WBC count”, the “Effect on AST” value [2, 8] was “significant (p<0.001) reduction in AST” and the “ALT (alanine aminotransferase)” value [2] was 36.16 ± 0.70 IU/L. For the same molecule, the “AST (aspartate aminotransferase)” value [2] was 45.16 ± 2.72 IU/L, the “% Lymphocytes” value [3, 9] was 40.00 ± 3.22% and the “% Monocytes” value [3, 9] was 7.32 ± 0.42%. For the same molecule, the “% Neutrophils” value [3, 9] was 42.16 ± 1.74%, the “Platelet Count” value [3, 9] was 732400 ± 7528 per cu · mm of blood and the “WBC Count” value [3, 9] was 7438 ± 626.20 per cu · mm of blood. The “% Lymphocytes” value [3, 10] was 82.50 ± 1.40%, the “% Monocytes” value [3, 10] was 1.32 ± 0.22% and the “% Neutrophils” value [3, 10] was 7.16 ± 0.48%. For the same molecule, the “Platelet Count” value [3, 10] was 637100 ± 38470 per cu · mm of blood, the “WBC Count” value [3, 10] was 1580 ± 235.00 per cu · mm of blood and the “% Lymphocytes” value [3, 11] was 59.32 ± 2.24 %. The “% Monocytes” value [3, 11] was 5.66 ± 0.48 %, the “% Neutrophils” value [3, 11] was 26.00 ± 1.66 % and the “Platelet Count” value [3, 11] was 690300 ± 15510 per cu · mm of blood. For the same molecule, the “WBC Count” value [3, 11] was 4518 ± 406.00 per cu · mm of blood, the “Effect on % lymphocytes” value [3, 8] was “reversed cyclophosphamide-induced lymphocyte recruitment significantly (p<0.001)” and the “Effect on platelet count” value [3, 8] was “significant increase in platelet count”. For the same molecule, the “Effect on total WBC count” value [3, 8] was “significantly (p<0.001) reversed the cyclophosphamide induced decrease in WBC count”, the “BUN (blood urea nitrogen)” value [4] was 9.633 mmol/L and the “SGOT Serum glutamic oxaloacetic transaminase” value [4] was 32.17 IU/L. The “SGPT (Serum glutamic pyruvic transaminase)” value [4] was 34.33 IU/L, the Serum Creatinine [4] was 44.5 µM and the Uric acid [4] was 26.33 mg/L. The “Effect on BUN level” value [4, 13] was “significant (p<0.001) decrease in BUN level”, the “Effect on SGOT level” value [4, 13] was “significant (p<0.001) reduction in SGOT” and the “Effect on serum creatinine level” value [4, 13] was “significant (p<0.001) reduction in creatinine level”. For the same molecule, the “Effect on uric acid level” value [4, 13] was “significant decrease in uric acid levels (p<0.001)”.
